Results on two molecules are retold here after PMC10546976.

Data set [1] deals with neuPABP (PABPC1L2). The data set is described as follows: EMSA. Conditions: […] (100 nM), 1 h at 30 C, pH not stated.
The target in data set [2] is PABPC1 (UniProt P11940 1-636). In words: EMSA.
PABPC1, sequence (P11940 whole entry): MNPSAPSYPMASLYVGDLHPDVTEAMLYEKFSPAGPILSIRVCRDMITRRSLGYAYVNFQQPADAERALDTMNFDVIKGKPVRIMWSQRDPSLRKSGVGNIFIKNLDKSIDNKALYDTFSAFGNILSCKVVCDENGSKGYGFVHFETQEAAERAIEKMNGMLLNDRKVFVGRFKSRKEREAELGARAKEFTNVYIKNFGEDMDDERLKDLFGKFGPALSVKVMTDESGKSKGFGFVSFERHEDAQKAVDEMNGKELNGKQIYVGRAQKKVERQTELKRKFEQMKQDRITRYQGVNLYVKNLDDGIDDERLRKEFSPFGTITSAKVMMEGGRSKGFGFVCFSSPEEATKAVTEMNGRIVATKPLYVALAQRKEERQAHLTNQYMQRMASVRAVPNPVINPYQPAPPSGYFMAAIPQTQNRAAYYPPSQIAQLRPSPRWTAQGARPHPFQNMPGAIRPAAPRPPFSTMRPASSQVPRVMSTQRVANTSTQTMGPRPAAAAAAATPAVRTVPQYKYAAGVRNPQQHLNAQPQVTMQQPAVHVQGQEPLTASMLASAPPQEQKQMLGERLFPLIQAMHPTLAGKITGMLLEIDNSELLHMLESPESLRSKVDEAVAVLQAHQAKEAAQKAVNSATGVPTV

By Kd is commonly meant the equilibrium constant for the complex coming apart. For AAAAAAAAAAAAAAAAAAAAAAAAA [oligo(A)25], the Kd in data set [1] turned out to be 50 nM. This lies in the double-digit nanomolar range.

B1: oligo(A)25 (ssRNA)
RNA: AAAAAAAAAAAAAAAAAAAAAAAAA
B1 showed a Kd in data set [2] of around 50 nM.
